Source: patent publication US20040146519A1

Target: HLA-A*2401 (human)
Experiment: inhibition of 125I probe peptide binding to purified HLA

relative binding ratio | Substance
0.0002 | CEA peptide, position 390, 10 amino acids
0.03 | CEA peptide, position 27, 10 amino acids
0.0006 | CEA peptide, position 137, 8 amino acids
0.0005 | CEA peptide, position 448, 8 amino acids
0.0002 | CEA peptide, position 248, 10 amino acids
0.0009 | CEA peptide, position 356, 8 amino acids
0.001 | CEA peptide, position 118, 8 amino acids
0.0003 | CEA peptide, position 94, 8 amino acids
-0.0005 | CEA peptide, position 42, 11 amino acids
